Measurements reported in the supplement of paper PMC5998384.

Assays:
HeLa Kyoto [1] = experiment: thermal stability score vs G1/S (z-score of summed log2 fold changes over temperatures); higher = more thermally stable than in G1/S
HeLa Kyoto [2] = experiment: solubility change mitosis vs G1/S (difference of NP-40 vs SDS log2 ratios) (log2 ratio difference); higher = more soluble in mitosis
HeLa Kyoto [3] = experiment: solubility in G1/S (NP-40 vs SDS abundance) (log2 ratio); higher = more soluble; conditions: cell cycle stage: G1/S
HeLa Kyoto [4] = experiment: melting temperature (median over replicates), in situ; higher = more thermally stable
[5] = cell cycle stage: early G1 (4.5 h after nocodazole release)
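Wherever melting temperature (median over replicates), in situ is given: HeLa Kyoto cells synchronized by double thymidine or nocodazole block, proteins quantified by TMT10plex mass spectrometry, three independent biological replicates.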
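Wherever solubility change mitosis vs G1/S (difference of NP-40 vs SDS log2 ratios) is given: synchronized HeLa Kyoto cells (double thymidine block for G1/S, nocodazole release for mitosis), protein amounts in NP-40 versus SDS lysates quantified by mass spectrometry, three biological replicates.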
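Wherever solubility in G1/S (NP-40 vs SDS abundance) is given: HeLa Kyoto cells arrested at G1/S by double thymidine block, proteins quantified by TMT10plex mass spectrometry in mild NP-40 versus SDS extracts, three biological replicates.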
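Wherever thermal stability score vs G1/S (z-score of summed log2 fold changes over temperatures) is given: synchronized HeLa Kyoto cells, proteins quantified by TMT10plex mass spectrometry, three biological replicates, mitosis taken 0.5 h after nocodazole release, G1/S directly after double thymidine block.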

Sequence	thermal stability score (HeLa Kyoto [1]; [5])	thermal stability score (HeLa Kyoto [1]; cell cycle stage: mitosis)	solubility change mitosis (log2) (HeLa Kyoto [2])	solubility in G1/S (log2) (HeLa Kyoto [3])	melting temperature (HeLa Kyoto [4]; cell cycle stage: G1/S) [°C]	melting temperature (HeLa Kyoto [4]; cell cycle stage: mitosis) [°C]
MAGAIIENMSTKKLCIVGGILLVFQIIAFLVGGLIAPGPTTAVSYMSVKCVDARKNHHKTKWFVPWGPNHCDKIRDIEEAIPREIEANDIVFSVHIPLPHMEMSPWFQFMLFILQLDIAFKLNNQIRENAEVSMDVSLAYRDDAFAEWTEMAHERVPRKLKCTFTSPKTPEHEGRYYECDVLPFMEIGSVAHKFYLLNIRLPVNEKKKINVGIGEIKDIRLVGIHQNGGFTKVWFAMKTFLTPSIFIIMVWYWRRITMMSRPPVLLEKVIFALGISMTFINIPVEWFSIGFDWTWMLLFGDIRQGIFYAMLLSFWIIFCGEHMMDQHERNHIAGYWKQVGPIAVGSFCLFIFDMCERGVQLTNPFYSIWTTDIGTELAMAFIIVAGICLCLYFLFLCFMVFQVFRNISGKQSSLPAMSKVRRLHYEGLIFRFKFLMLITLACAAMTVIFFIVSQVTEGHWKWGGVTVQVNSAFFTGIYGMWNLYVFALMFLYAPSHKNYGEDQSNGDLGVHSGEELQLTTTITHVDGPTEIYKLTRKEAQE [WLS]	0.834	2.64	-0.236	-0.178	54.2	54.2
MAGDSEQTLQNHQQPNGGEPFLIGVSGGTASGKSSVCAKIVQLLGQNEVDYRQKQVVILSQDSFYRVLTSEQKAKALKGQFNFDHPDAFDNELILKTLKEITEGKTVQIPVYDFVSHSRKEETVTVYPADVVLFEGILAFYSQEVRDLFQMKLFVDTDADTRLSRRVLRDISERGRDLEQILSQYITFVKPAFEEFCLPTKKYADVIIPRGADNLVAINLIVQHIQDILNGGPSKRQTNGCLNGYTPSRKRQASESSSRPH [UCK2]	0.367	-1.36	0.265	0.28	52.2	52.9
MAGEGDQQDAAHNMGNHLPLLPAESEEEDEMEVEDQDSKEAKKPNIINFDTSLPTSHTYLGADMEEFHGRTLHDDDSCQVIPVLPQVMMILIPGQTLPLQLFHPQEVSMVRNLIQKDRTFAVLAYSNVQEREAQFGTTAEIYAYREEQDFGIEIVKVKAIGRQRFKVLELRTQSDGIQQAKVQILPECVLPSTMSAVQLESLNKCQIFPSKPVSREDQCSYKWWQKYQKRKFHCANLTSWPRWLYSLYDAETLMDRIKKQLREWDENLKDDSLPSNPIDFSYRVAACLPIDDVLRIQLLKIGSAIQRLRCELDIMNKCTSLCCKQCQETEITTKNEIFSLSLCGPMAAYVNPHGYVHETLTVYKACNLNLIGRPSTEHSWFPGYAWTVAQCKICASHIGWKFTATKKDMSPQKFWGLTRSALLPTIPDTEDEISPDKVILCL [CRBN]	-0.823	-2.4	-0.303	-0.152	53.7	53.4
MAGGEDRGDGEPVSVVTVRVQYLEDTDPFACANFPEPRRAPTCSLDGALPLGAQIPAVHRLLGAPLKLEDCALQVSPSGYYLDTELSLEEQREMLEGFYEEISKGRKPTLILRTQLSVRVNAILEKLYSSSGPELRRSLFSLKQIFQEDKDLVPEFVHSEGLSCLIRVGAAADHNYQSYILRALGQLMLFVDGMLGVVAHSDTIQWLYTLCASLSRLVVKTALKLLLVFVEYSENNAPLFIRAVNSVASTTGAPPWANLVSILEEKNGADPELLVYTVTLINKTLAALPDQDSFYDVTDALEQQGMEALVQRHLGTAGTDVDLRTQLVLYENALKLEDGDIEEAPGAGGRRERRKPSSEEGKRSRRSLEGGGCPARAPEPGPTGPASPVGPTSSTGPALLTGPASSPVGPPSGLQASVNLFPTISVAPSADTSSERSIYKARFLENVAAAETEKQVALAQGRAETLAGAMPNEAGGHPDARQLWDSPETAPAARTPQSPAPCVLLRAQRSLAPEPKEPLIPASPKAEPIWELPTRAPRLSIGDLDFSDLGEDEDQDMLNVESVEAGKDIPAPSPPLPLLSGVPPPPPLPPPPPIKGPFPPPPPLPLAAPLPHSVPDSSALPTKRKTVKLFWRELKLAGGHGVSASRFGPCATLWASLDPVSVDTARLEHLFESRAKEVLPSKKAGEGRRTMTTVLDPKRSNAINIGLTTLPPVHVIKAALLNFDEFAVSKDGIEKLLTMMPTEEERQKIEEAQLANPDIPLGPAENFLMTLASIGGLAARLQLWAFKLDYDSMEREIAEPLFDLKVGMEQLVQNATFRCILATLLAVGNFLNGSQSSGFELSYLEKVSEVKDTVRRQSLLHHLCSLVLQTRPESSDLYSEIPALTRCAKVDFEQLTENLGQLERRSRAAEESLRSLAKHELAPALRARLTHFLDQCARRVAMLRIVHRRVCNRFHAFLLYLGYTPQAAREVRIMQFCHTLREFALEYRTCRERVLQQQQKQATYRERNKTRGRMITETEKFSGVAGEAPSNPSVPVAVSSGPGRGDADSHASMKSLLTSRPEDTTHNRRSRGMVQSSSPIMPTVGPSTASPEEPPGSSLPSDTSDEIMDLLVQSVTKSSPRALAARERKRSRGNRKSLRRTLKSGLGDDLVQALGLSKGPGLEV [FHOD1]	1.05	2.72	-0.13	0.185	48	48.1
MAGGPPKALPSTGPHSLRDMPHPLAGSSSEEAVGGDSTPSPDLLMARSFGDKDLILPNGGTPAGTSSPASSSSLLNRLQLDDDIDGETRDLFVIVDDPKKHVCTMETYITYRITTKSTRVEFDLPEYSVRRRYQDFDWLRSKLEESQPTHLIPPLPEKFVVKGVVDRFSEEFVETRRKALDKFLKRITDHPVLSFNEHFNIFLTAKDLNAYKKQGIALLTRMGESVKHVTGGYKLRTRPLEFAAIGDYLDTFALKLGTIDRIAQRIIKEEIEYLVELREYGPVYSTWSALEGELAEPLEGVSACIGNCSTALEELTDDMTEDFLPVLREYILYSDSMKSVLKKRDQVQAEYEAKLEAVALRKEDRPKVPADVEKCQDRMECFNADLKADMERWQNNKRQDFRQLLMGMADKNIQYYEKCLMAWESIIPLLQEKQEAK [SNX30]	0.333	1.76	-0.31	0.262	50.1	50.7
MAGKSSLFKVILLGDGGVGKSSLMNRYVTNKFDTQLFHTIGVEFLNKDLEVDGHFVTMQIWDTAGQERFRSLRTPFYRGSDCCLLTFSVDDSQSFQNLSNWKKEFIYYADVKEPESFPFVILGNKIDISERQVSTEEAQAWCRDNGDYPYFETSAKDATNVAAAFEEAVRRVLATEDRSDHLIQTDTVNLHRKPKPSSSCC [RAB9A]	-1.81	-3.52	-0.207	-0.0893	54.3	54.2
MAGLPRRIIKETQRLLAEPVPGIKAEPDESNARYFHVVIAGPQDSPFEGGTFKLELFLPEEYPMAAPKVRFMTKIYHPNVDKLGRICLDILKDKWSPALQIRTVLLSIQALLSAPNPDDPLANDVAEQWKTNEAQAIETARAWTRLYAMNNI [UBE2N]	-0.982	-0.49	0.111	0.641	52.1	52.1
MAGLTVRDPAVDRSLRSVFVGNIPYEATEEQLKDIFSEVGPVVSFRLVYDRETGKPKGYGFCEYQDQETALSAMRNLNGREFSGRALRVDNAASEKNKEELKSLGTGAPVIESPYGETISPEDAPESISKAVASLPPEQMFELMKQMKLCVQNSPQEARNMLLQNPQLAYALLQAQVVMRIVDPEIALKILHRQTNIPTLIAGNPQPVHGAGPGSGSNVSMNQQNPQAPQAQSLGGMHVNGAPPLMQASMQGGVPAPGQMPAAVTGPGPGSLAPGGGMQAQVGMPGSGPVSMERGQVPMQDPRAAMQRGSLPANVPTPRGLLGDAPNDPRGGTLLSVTGEVEPRGYLGPPHQGPPMHHVPGHESRGPPPHELRGGPLPEPRPLMAEPRGPMLDQRGPPLDGRGGRDPRGIDARGMEARAMEARGLDARGLEARAMEARAMEARAMEARAMEARAMEVRGMEARGMDTRGPVPGPRGPIPSGMQGPSPINMGAVVPQGSRQVPVMQGTGMQGASIQGGSQPGGFSPGQNQVTPQDHEKAALIMQVLQLTADQIAMLPPEQRQSILILKEQIQKSTGAP [CSTF2]	-0.643	-0.392	0.172	0.323	53	53.2
MAGNFDSEERSSWYWGRLSRQEAVALLQGQRHGVFLVRDSSTSPGDYVLSVSENSRVSHYIINSSGPRPPVPPSPAQPPPGVSPSRLRIGDQEFDSLPALLEFYKIHYLDTTTLIEPVSRSRQGSGVILRQEEAEYVRALFDFNGNDEEDLPFKKGDILRIRDKPEEQWWNAEDSEGKRGMIPVPYVEKYRPASASVSALIGGNQEGSHPQPLGGPEPGPYAQPSVNTPLPNLQNGPIYARVIQKRVPNAYDKTALALEVGELVKVTKINVSGQWEGECNGKRGHFPFTHVRLLDQQNPDEDFS [CRK]	-0.547	-1.21	-0.104	0.342	50.6	51.5
MAGPELLLDSNIRLWVVLPIVIITFFVGMIRHYVSILLQSDKKLTQEQVSDSQVLIRSRVLRENGKYIPKQSFLTRKYYFNNPEDGFFKKTKRKVVPPSPMTDPTMLTDMMKGNVTNVLPMILIGGWINMTFSGFVTTKVPFPLTLRFKPMLQQGIELLTLDASWVSSASWYFLNVFGLRSIYSLILGQDNAADQSRMMQEQMTGAAMAMPADTNKAFKTEWEALELTDHQWALDDVEEELMAKDLHFEGMFKKELQTSIF [EMC3]	-0.437	-0.599	-0.25	-0.174	54.1	53.7
